The target in test [1] is N-terminal polyhistidine tagged recombinant rat neurolysin (rat) (UniProt P42676). The test can be described thus: cell-based or functional assay.
For test [2], the target named is mouse plasma proteins. The test can be described thus: rapid equilibrium dialysis (RED), mouse plasma, 500 ng/mL. (Equilibrium dialysis compares concentrations on both sides of a semipermeable membrane.)

In the case of “NlnA#2, NSC 523374, D,L-histidyl-D,L-histidine (peptide)”, in test [1], the formation of angiotensin-(1-7) from angiotensin I (20 µM), mass spectrometry, 100 µM modulator was determined as 6 fold; the formation of bradykinin-(1-5) from bradykinin (20 µM), mass spectrometry, 100 µM modulator was 2 fold; the formation of neurotensin-(1-10) from neurotensin (20 µM), mass spectrometry, 100 µM modulator worked out at 3 fold.

Turning to His-Trp (peptide), in test [2], the fu in Plasma (fraction unbound) came out at 0.93.

The substance “NlnA#1, NSC 374121, L-histidyl-L-tyrosine (peptide)” had a fu in Plasma (fraction unbound) in test [2] of 0.66. Further, in test [1], the formation of angiotensin-(1-7) from angiotensin I (20 µM), mass spectrometry, 100 µM modulator is 6 fold; the formation of bradykinin-(1-5) from bradykinin (20 µM), mass spectrometry, 100 µM modulator was 2 fold; the formation of neurotensin-(1-10) from neurotensin (20 µM), mass spectrometry, 100 µM modulator came to 3 fold.

These data come from patent publication US20210198647A1, “Enhancers of Neurolysin Activity” (Texas Tech University System, priority 2018, published 2021).
